Numbered stars: 1 amine (or outer) side, 2 acyl side, 3 side chain; on linkers, the order of the positions; unused ones are H or OH. Bridge positions count the residues as written; N and C are the ends. Side chains are listed from the residue outwards. Ends that are not written are not given here. * marks the point of attachment. C20 diacid = O=C(O)CCCCCCCCCCCCCCCCCCC(=O)*; γGlu = O=C(O)[C@H](CCC(=O)[*:2])N[*:1]
T1: human calcitonin receptor (human, UniProt P30988 25-474)
T1 construct: whole, on cells; also called hCTR; hCT
T1 sequence (looked up): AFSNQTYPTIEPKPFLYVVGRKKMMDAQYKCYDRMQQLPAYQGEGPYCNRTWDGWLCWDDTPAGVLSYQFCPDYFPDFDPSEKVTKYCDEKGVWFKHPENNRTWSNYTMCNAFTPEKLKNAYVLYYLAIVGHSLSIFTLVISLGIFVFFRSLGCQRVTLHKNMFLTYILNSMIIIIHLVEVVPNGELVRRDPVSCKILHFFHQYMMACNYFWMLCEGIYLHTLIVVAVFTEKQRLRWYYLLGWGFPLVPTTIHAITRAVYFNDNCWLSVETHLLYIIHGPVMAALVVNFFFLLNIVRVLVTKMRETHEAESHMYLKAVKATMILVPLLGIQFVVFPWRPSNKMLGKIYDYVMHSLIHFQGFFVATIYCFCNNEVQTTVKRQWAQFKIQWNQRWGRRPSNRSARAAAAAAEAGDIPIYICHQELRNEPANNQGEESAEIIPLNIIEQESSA

T2: rat calcitonin receptor (rat, UniProt P32214 25-516)
T2 construct: whole, on cells; also called rCTR; rat calcitonin (a) receptor
T2 sequence (looked up): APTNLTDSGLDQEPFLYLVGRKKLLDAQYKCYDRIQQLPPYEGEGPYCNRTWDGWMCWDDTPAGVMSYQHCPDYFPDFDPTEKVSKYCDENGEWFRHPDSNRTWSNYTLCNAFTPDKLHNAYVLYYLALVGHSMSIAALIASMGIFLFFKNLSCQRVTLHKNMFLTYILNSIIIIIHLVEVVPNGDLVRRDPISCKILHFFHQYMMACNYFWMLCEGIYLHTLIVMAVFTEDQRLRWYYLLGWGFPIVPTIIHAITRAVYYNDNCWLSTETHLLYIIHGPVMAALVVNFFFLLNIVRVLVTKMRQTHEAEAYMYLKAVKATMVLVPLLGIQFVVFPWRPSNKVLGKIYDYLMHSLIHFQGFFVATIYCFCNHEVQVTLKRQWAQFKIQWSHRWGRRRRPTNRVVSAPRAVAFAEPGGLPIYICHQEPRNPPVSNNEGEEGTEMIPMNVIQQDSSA

T3: rat amylin receptor (rat calcitonin receptor + rat RAMP 3) (rat, UniProt P32214 25-516; Q9JJ73 23-147)
T3 construct: whole, on cells; also called rAmylin-R; rat amylin 3(a) receptor
T3 sequence (looked up) 1: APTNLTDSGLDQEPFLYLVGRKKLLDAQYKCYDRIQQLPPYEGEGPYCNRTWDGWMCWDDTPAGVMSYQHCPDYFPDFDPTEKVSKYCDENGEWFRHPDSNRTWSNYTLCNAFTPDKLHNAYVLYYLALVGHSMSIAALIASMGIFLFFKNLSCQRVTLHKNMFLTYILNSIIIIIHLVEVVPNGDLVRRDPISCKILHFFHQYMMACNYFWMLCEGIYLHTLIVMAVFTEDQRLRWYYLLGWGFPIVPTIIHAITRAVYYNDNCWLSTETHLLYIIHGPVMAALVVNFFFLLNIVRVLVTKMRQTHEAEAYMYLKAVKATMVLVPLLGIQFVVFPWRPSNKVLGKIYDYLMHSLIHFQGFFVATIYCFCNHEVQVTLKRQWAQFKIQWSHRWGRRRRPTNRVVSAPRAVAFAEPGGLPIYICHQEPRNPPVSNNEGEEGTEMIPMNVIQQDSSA
T3 sequence (looked up) 2: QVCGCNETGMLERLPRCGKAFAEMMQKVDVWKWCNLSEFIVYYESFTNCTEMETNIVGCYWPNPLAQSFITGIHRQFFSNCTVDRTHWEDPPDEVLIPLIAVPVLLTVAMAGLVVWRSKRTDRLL


Assays:
[1] = biological target: T1, human calcitonin receptor; assay: ratio of binding IC50s: human calcitonin receptor over human amylin receptor (reference)
Summary of the method: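 Competition binding by SPA with cell membranes (35 ng/μL) and SPA beads in 50 mM Hepes pH 7.4 with 1 mM CaCl2, 5 mM MgCl2, 0.1% OA and 0.02% Tween20. Incubated 120 min at 25 °C with shaking, then counted.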

[2] = biological target: T2, rat calcitonin receptor; assay: ratio of binding IC50s: rat calcitonin receptor over rat amylin receptor (reference)
[3] = biological target: T3, rat amylin receptor (rat calcitonin …); assay: SPA competition with 125I-rat amylin, membranes of BHK cells with rat calcitonin receptor + rat RAMP3 (Assay VI)
[4] = biological target: T2, rat calcitonin receptor; assay: SPA competition with 125I-calcitonin, membranes of BHK cells with rat calcitonin receptor (Assay VIII)

| Binder | Ratio hCT/hAmylin binding [1] | Ratio rCT/rAmylin binding [2] | IC50 [3] [nM] | IC50 [4] [nM] |
| --- | --- | --- | --- | --- |
| K([γGlu-C20 diacid])CNTATCATQRLAHFLRHSSPNFGAIPSSTPVGSNTY-NH2 (disulfide 2-7; N-terminus assumed; SMILES CC[C@H](C)[C@H](NC(=O)[C@H](C)NC(=O)CNC(=O)[C@H](Cc1ccccc1)NC(=O)[C@H](CC(N)=O)NC(=O)[C@@H]1CCCN1C(=O)[C@H](CO)NC(=O)[C@H](CO)NC(=O)[C@H](Cc1c[nH]cn1)NC(=O)[C@H](CCCNC(=N)N)NC(=O)[C@H](CC(C)C)NC(=O)[C@H](Cc1ccccc1)NC(=O)[C@H](Cc1c[nH]cn1)NC(=O)[C@H](C)NC(=O)[C@H](CC(C)C)NC(=O)[C@H](CCCNC(=N)N)NC(=O)[C@H](CCC(N)=O)NC(=O)[C@@H](NC(=O)[C@H](C)NC(=O)[C@@H]1CSSC[C@H](NC(=O)[C@@H](N)CCCCNC(=O)CC[C@H](NC(=O)CCCCCCCCCCCCCCCCCCC(=O)O)C(=O)O)C(=O)N[C@@H](CC(N)=O)C(=O)N[C@@H]([C@@H](C)O)C(=O)N[C@@H](C)C(=O)N[C@@H]([C@@H](C)O)C(=O)N1)[C@@H](C)O)C(=O)N1CCC[C@H]1C(=O)N[C@@H](CO)C(=O)N[C@@H](CO)C(=O)N[C@H](C(=O)N1CCC[C@H]1C(=O)N[C@H](C(=O)NCC(=O)N[C@@H](CO)C(=O)N[C@@H](CC(N)=O)C(=O)N[C@H](C(=O)N[C@@H](Cc1ccc(O)cc1)C(N)=O)[C@@H](C)O)C(C)C)[C@@H](C)O, synthetic analogue of human amylin; also called compound 62) | 63 | 42.8 | 0.42 | 18 |
| K([γGlu-γGlu-C20 diacid])CNTATCATQRLAEFLRHSSPNFGAIPSSTNVGRNTY-NH2 (disulfide 2-7; N-terminus assumed; SMILES CC[C@H](C)[C@H](NC(=O)[C@H](C)NC(=O)CNC(=O)[C@H](Cc1ccccc1)NC(=O)[C@H](CC(N)=O)NC(=O)[C@@H]1CCCN1C(=O)[C@H](CO)NC(=O)[C@H](CO)NC(=O)[C@H](Cc1c[nH]cn1)NC(=O)[C@H](CCCNC(=N)N)NC(=O)[C@H](CC(C)C)NC(=O)[C@H](Cc1ccccc1)NC(=O)[C@H](CCC(=O)O)NC(=O)[C@H](C)NC(=O)[C@H](CC(C)C)NC(=O)[C@H](CCCNC(=N)N)NC(=O)[C@H](CCC(N)=O)NC(=O)[C@@H](NC(=O)[C@H](C)NC(=O)[C@@H]1CSSC[C@H](NC(=O)[C@@H](N)CCCCNC(=O)CC[C@H](NC(=O)CC[C@H](NC(=O)CCCCCCCCCCCCCCCCCCC(=O)O)C(=O)O)C(=O)O)C(=O)N[C@@H](CC(N)=O)C(=O)N[C@@H]([C@@H](C)O)C(=O)N[C@@H](C)C(=O)N[C@@H]([C@@H](C)O)C(=O)N1)[C@@H](C)O)C(=O)N1CCC[C@H]1C(=O)N[C@@H](CO)C(=O)N[C@@H](CO)C(=O)N[C@H](C(=O)N[C@@H](CC(N)=O)C(=O)N[C@H](C(=O)NCC(=O)N[C@@H](CCCNC(=N)N)C(=O)N[C@@H](CC(N)=O)C(=O)N[C@H](C(=O)N[C@@H](Cc1ccc(O)cc1)C(N)=O)[C@@H](C)O)C(C)C)[C@@H](C)O, synthetic analogue of human amylin; also called compound 88) | 46.5 | 84.9 | 2.31 | 196 |
| K([γGlu-γGlu-C20 diacid])CNTATCATQRLAEFLRHSSPNFGAIPSSTNVGSRTY-NH2 (disulfide 2-7; N-terminus assumed; SMILES CC[C@H](C)[C@H](NC(=O)[C@H](C)NC(=O)CNC(=O)[C@H](Cc1ccccc1)NC(=O)[C@H](CC(N)=O)NC(=O)[C@@H]1CCCN1C(=O)[C@H](CO)NC(=O)[C@H](CO)NC(=O)[C@H](Cc1c[nH]cn1)NC(=O)[C@H](CCCNC(=N)N)NC(=O)[C@H](CC(C)C)NC(=O)[C@H](Cc1ccccc1)NC(=O)[C@H](CCC(=O)O)NC(=O)[C@H](C)NC(=O)[C@H](CC(C)C)NC(=O)[C@H](CCCNC(=N)N)NC(=O)[C@H](CCC(N)=O)NC(=O)[C@@H](NC(=O)[C@H](C)NC(=O)[C@@H]1CSSC[C@H](NC(=O)[C@@H](N)CCCCNC(=O)CC[C@H](NC(=O)CC[C@H](NC(=O)CCCCCCCCCCCCCCCCCCC(=O)O)C(=O)O)C(=O)O)C(=O)N[C@@H](CC(N)=O)C(=O)N[C@@H]([C@@H](C)O)C(=O)N[C@@H](C)C(=O)N[C@@H]([C@@H](C)O)C(=O)N1)[C@@H](C)O)C(=O)N1CCC[C@H]1C(=O)N[C@@H](CO)C(=O)N[C@@H](CO)C(=O)N[C@H](C(=O)N[C@@H](CC(N)=O)C(=O)N[C@H](C(=O)NCC(=O)N[C@@H](CO)C(=O)N[C@@H](CCCNC(=N)N)C(=O)N[C@H](C(=O)N[C@@H](Cc1ccc(O)cc1)C(N)=O)[C@@H](C)O)C(C)C)[C@@H](C)O, synthetic analogue of human amylin; also called compound 89) | 28 | 48.8 | 2.37 | 115 |
| K([γGlu-γGlu-C20 diacid])CNTATCATQRLANFLRHSSPNFGAIPSSTNVGHNTY-NH2 (disulfide 2-7; N-terminus assumed; SMILES CC[C@H](C)[C@H](NC(=O)[C@H](C)NC(=O)CNC(=O)[C@H](Cc1ccccc1)NC(=O)[C@H](CC(N)=O)NC(=O)[C@@H]1CCCN1C(=O)[C@H](CO)NC(=O)[C@H](CO)NC(=O)[C@H](Cc1c[nH]cn1)NC(=O)[C@H](CCCNC(=N)N)NC(=O)[C@H](CC(C)C)NC(=O)[C@H](Cc1ccccc1)NC(=O)[C@H](CC(N)=O)NC(=O)[C@H](C)NC(=O)[C@H](CC(C)C)NC(=O)[C@H](CCCNC(=N)N)NC(=O)[C@H](CCC(N)=O)NC(=O)[C@@H](NC(=O)[C@H](C)NC(=O)[C@@H]1CSSC[C@H](NC(=O)[C@@H](N)CCCCNC(=O)CC[C@H](NC(=O)CC[C@H](NC(=O)CCCCCCCCCCCCCCCCCCC(=O)O)C(=O)O)C(=O)O)C(=O)N[C@@H](CC(N)=O)C(=O)N[C@@H]([C@@H](C)O)C(=O)N[C@@H](C)C(=O)N[C@@H]([C@@H](C)O)C(=O)N1)[C@@H](C)O)C(=O)N1CCC[C@H]1C(=O)N[C@@H](CO)C(=O)N[C@@H](CO)C(=O)N[C@H](C(=O)N[C@@H](CC(N)=O)C(=O)N[C@H](C(=O)NCC(=O)N[C@@H](Cc1c[nH]cn1)C(=O)N[C@@H](CC(N)=O)C(=O)N[C@H](C(=O)N[C@@H](Cc1ccc(O)cc1)C(N)=O)[C@@H](C)O)C(C)C)[C@@H](C)O, synthetic analogue of human amylin; also called compound 86) | 159 | 126 | 2.8 | 352 |
| K([γGlu-C20 diacid])CNTATCATQRLAHFLRHSSPNFGAIPSSTNVGPNTY-NH2 (disulfide 2-7; N-terminus assumed; SMILES CC[C@H](C)[C@H](NC(=O)[C@H](C)NC(=O)CNC(=O)[C@H](Cc1ccccc1)NC(=O)[C@H](CC(N)=O)NC(=O)[C@@H]1CCCN1C(=O)[C@H](CO)NC(=O)[C@H](CO)NC(=O)[C@H](Cc1c[nH]cn1)NC(=O)[C@H](CCCNC(=N)N)NC(=O)[C@H](CC(C)C)NC(=O)[C@H](Cc1ccccc1)NC(=O)[C@H](Cc1c[nH]cn1)NC(=O)[C@H](C)NC(=O)[C@H](CC(C)C)NC(=O)[C@H](CCCNC(=N)N)NC(=O)[C@H](CCC(N)=O)NC(=O)[C@@H](NC(=O)[C@H](C)NC(=O)[C@@H]1CSSC[C@H](NC(=O)[C@@H](N)CCCCNC(=O)CC[C@H](NC(=O)CCCCCCCCCCCCCCCCCCC(=O)O)C(=O)O)C(=O)N[C@@H](CC(N)=O)C(=O)N[C@@H]([C@@H](C)O)C(=O)N[C@@H](C)C(=O)N[C@@H]([C@@H](C)O)C(=O)N1)[C@@H](C)O)C(=O)N1CCC[C@H]1C(=O)N[C@@H](CO)C(=O)N[C@@H](CO)C(=O)N[C@H](C(=O)N[C@@H](CC(N)=O)C(=O)N[C@H](C(=O)NCC(=O)N1CCC[C@H]1C(=O)N[C@@H](CC(N)=O)C(=O)N[C@H](C(=O)N[C@@H](Cc1ccc(O)cc1)C(N)=O)[C@@H](C)O)C(C)C)[C@@H](C)O, synthetic analogue of human amylin; also called compound 67) | 51.6 | 85.4 | 0.172 | 14.7 |
